# Test results from patent US20240360229A1.
# Target: human CCR8 (human) (UniProt P51685)
# Test: cell-based or functional assay
# Sequence of human CCR8 (human) (P51685 whole entry): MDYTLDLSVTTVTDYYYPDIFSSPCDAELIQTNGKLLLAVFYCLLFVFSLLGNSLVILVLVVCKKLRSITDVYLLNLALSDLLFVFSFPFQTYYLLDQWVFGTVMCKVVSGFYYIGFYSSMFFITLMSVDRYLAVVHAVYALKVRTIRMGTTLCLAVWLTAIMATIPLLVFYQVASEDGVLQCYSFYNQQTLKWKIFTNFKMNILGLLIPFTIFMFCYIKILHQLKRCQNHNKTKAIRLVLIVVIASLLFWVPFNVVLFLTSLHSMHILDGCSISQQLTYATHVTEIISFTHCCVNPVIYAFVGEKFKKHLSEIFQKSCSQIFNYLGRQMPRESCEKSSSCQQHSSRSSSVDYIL
binder,measurement,value
"control antibody (BD, Cat. #433H) (antibody, from another filing, V domains shown) VH: EVQLVETGGGLVQPKGSLRLSCAASGFPFNTFAMNWVRQAPGKGLEWLARIRSKSNNYATYYADSVKDRFTISRDDSRRMLYLLMNNVKFEDTAIYYCVRGKENNYGYAMDYWGQGTSVTVSS VL: DIVMTQAAPSVPVTPGESVSISCRSSQSLLHSNGNTYLYWFLQRPGQSPQLLIYRMSNLASGVPDRFSGSGSGTAFTLRISRVEAEDVGVYYCMQHLEYPFTFGIGTKLELKR","IC50 of inhibition of CCL1-mediated activation of CCR8 (Ca2+ influx, FLIPR, CHO/hCCR8.Gna15 cells)",8.4 nM
